Data on two molecules can be found in patent US20160205946A1, “ENZYMATIC IN SITU PREPARATION OF PERACID-BASED REMOVABLE ANTIMICROBIAL COATING COMPOSITIONS AND METHODS OF USE” (THE CHEMOURS COMPANY FC, LLC, priority 2009, published 2016).

Changes are numbered by the printed parent chain. Numbers in names are those of the source.

A short description of the data set: pNPA microplate assay (enzyme specific activity). Type of data set: biochemical. Conditions: 30 °C, pH 7.2. The procedure:
Into each of four wells of a 96-well microplate were added 170 μL of potassium phosphate buffer (50 mM, pH 7.2) and either 10 μL of 0.1 mg total protein/mL of cell lysate, or 10 μL of 0.02 mg total protein/mL of a spray-dried enzyme solution. The plate was covered and placed in a microplate reader (Molecular Devices SPECTRAmax® 384 Plus), then mixed for several seconds and equilibrated at 30° C. for 10 minutes. To each well of the plate was then simultaneously added 20 μL of a 30 mM pNPA solution prepared by mixing (immediately prior to use) 0.6 mL of 100 mM pNPA in acetonitrile with 1.4 mL of 50 mM potassium phosphate buffer (pH 7.2). The change in absorbance at 400 nm was measured over 1 minute of reaction time. The background rate of pNPA hydrolysis (subtracted from the rate of hydrolysis measured in the presence of enzyme) was separately measured in four wells by substituting 10 μL/well of potassium phosphate buffer (50 mM, pH 7.2) for cell lysate or enzyme-containing solution. The extinction coefficient for para-nitrophenol, measured at pH 7.2 in a 1-cm path length cell, was 10,909 L·cm^−1·mol^−1. One pNPA Unit of enzyme activity is equivalent to the amount of protein that catalyzes the hydrolysis of one micromole of pNPA in one minute.

B1: T. maritima perhydrolase spray-dried enzyme powder: Spray-dried wild type acetyl xylan esterase from Thermotoga maritima, 27.8 wt % protein (protein, UniProt Q9WXT2 1-325, looked up)
Cephalosporin-C deacetylase: MAFFDLPLEELKKYRPERYEEKDFDEFWEETLAESEKFPLDPVFERMESHLKTVEAYDVTFSGYRGQRIKGWLLVPKLEEEKLPCVVQYIGYNGGRGFPHDWLFWPSMGYICFVMDTRGQGSGWLKGDTPDYPEGPVDPQYPGFMTRGILDPRTYYYRRVFTDAVRAVEAAASFPQVDQERIVIAGGSQGGGIALAVSALSKKAKALLCDVPFLCHFRRAVQLVDTHPYAEITNFLKTHRDKEEIVFRTLSYFDGVNFAARAKIPALFSVGLMDNICPPSTVFAAYNYYAGPKEIRIYPYNNHEGGGSFQAVEQVKFLKKLFEKG
modifications: spray-dried powder
notes: Spray-dried wild type acetyl xylan esterase from Thermotoga maritima, 27.8 wt % protein
For the molecule B1, the “Specific activity of spray-dried enzyme powder” value came to 86.1 pNPA U/mg protein.

B2: T. maritima C277S perhydrolase spray-dried enzyme powder: Spray-dried T. maritima acetyl xylan esterase C277S mutant, 25.5 wt % protein (protein, UniProt Q9WXT2 1-325, looked up, variant C277S)
Cephalosporin-C deacetylase: B1 Cephalosporin-C deacetylase with C277S
modifications: spray-dried powder
notes: Spray-dried T. maritima acetyl xylan esterase C277S mutant, 25.5 wt % protein
As to B2, the “Specific activity of spray-dried enzyme powder” value is 129.5 pNPA U/mg protein.
